Reference: the RNAGym collection of RNA variant scans (doi:10.1021/acssynbio.7b00057)

B1: Pistol ribozyme (parent)
chain: GGGUCGUUGUUCCAUAAUCGCGUGGAUAUGGCACGCAAGUUUCUACCGGGCACCGUAAAUGUCCGACUGGAGCCGUUCGGGCGGCUAUAAACAGACCUCAGGCCCGAAGCGUGGCGGCACCUGCCGCCGGUGGUAAAAAAGAUCGGAAGAGCACACGUCU

Variants of: B1
Experiment: aptazyme ON/OFF ratio, guanine; higher = stronger switching; co-transcriptional cleavage with and without guanine

| Variant | aptazyme ON/OFF ratio |
| --- | --- |
| U7G U8G G9A U11G C12G | 1.39 |
| U7G U8G G9A U11G C12A | 1.28 |
| U7G U8G G9A U11G C12U | 1.5 |
| U7G U8G G9C U10A U11G C12A C13U | 1.05 |
| U7G U8G G9C U10A U11G C12A C13G | 1.12 |
| U7G U8G G9C U10A U11G C12A C13A | 1.07 |
| U7G U8G G9C C12A C13G | 1.08 |
| U7G U8G G9C C12A C13U | 1.2 |
| U7G U8G G9C C12A C13A | 1.22 |
| U7G U8G G9C U10A U11A C12U C13G | 1.03 |
| U7G U8G G9C U10A U11A C12U C13U | 1.02 |
| U7G U8G G9C U10A U11A C12U C13A | 1.08 |
| U7G U8G G9C U10C U11G C13A | 1.38 |
| U7G U8G G9C U10C U11G C13G | 1.27 |
| U7G U8G G9C U10C U11G C13U | 1.3 |
| U7G U8G G9C U10A C12A | 1.03 |
| U7G U8G G9C U10A C12G | 1.03 |
| U7G U8G G9C U10A C12U | 1.02 |
| U7G U8G G9C U10C U11G C12U C13G | 1.22 |
| U7G U8G G9C U10C U11G C12U C13U | 1.22 |
| U7G U8G G9C U10C U11G C12U C13A | 1.25 |
| U7G U8G G9C U10C | 2.35 |
| U7G U8G G9C U10G | 1.74 |
| U7G U8G G9C U10A | 1.58 |

| Variant | aptazyme ON/OFF ratio |
| --- | --- |
| U7G U8G G9A U11G C12A C13A | 0.999 |
| U7G U8G G9A U11G C12A C13U | 1.18 |
| U7G U8G G9A U11G C12A C13G | 1.09 |
| U7G U8G G9C C12G C13G | 1.13 |
| U7G U8G G9C C12G C13A | 1.28 |
| U7G U8G G9C C12G C13U | 1.35 |
| U7G U8G G9A U11G C12U C13G | 1.25 |
| U7G U8G G9A U11G C12U C13A | 1.23 |
| U7G U8G G9A U11G C12U C13U | 1.4 |
| U7G U8G G9A U11G | 1.91 |
| U7G U8G G9C U10C U11C C12G C13A | 1.05 |
| U7G U8G G9C U10C U11C C12G C13G | 1.06 |
| U7G U8G G9C U10C U11C C12G C13U | 1.04 |
| U7G U8G G9C U10C U11C C12A C13A | 1.05 |
| U7G U8G G9C U10C U11C C12A C13G | 1.14 |
| U7G U8G G9C U10C U11C C12A C13U | 1.1 |
| U7G U8G G9C U10A U11G C12G C13G | 1.07 |
| U7G U8G G9C U10A U11G C12G C13A | 1.1 |
| U7G U8G G9C U10A U11G C12G C13U | 1.06 |
| U7G U8G G9C U10A U11A C12G C13U | 1.02 |
| U7G U8G G9C U10A U11A C12G C13A | 1.08 |
| U7G U8G G9C U10A U11A C12G C13G | 1.05 |
| U7G U8G G9C U10C U11A C12G C13U | 1.24 |
| U7G U8G G9C U10C U11A C12G C13G | 1.24 |

| Variant | aptazyme ON/OFF ratio |
| --- | --- |
| U7G U8G G9C U10C U11A C12G C13A | 1.28 |
| U7G U8G G9C U10A C12A C13U | 1.04 |
| U7G U8G G9C U10A C12A C13A | 1.03 |
| U7G U8G G9C U10A C12A C13G | 1.04 |
| U7G U8G G9C U10C U11A C12U C13U | 1.23 |
| U7G U8G G9C U10C U11A C12U C13G | 1.32 |
| U7G U8G G9C U10C U11A C12U C13A | 1.36 |
| U7G U8G G9C U10C U11C C12U | 1.18 |
| U7G U8G G9C U10C U11C C12G | 1.05 |
| U7G U8G G9C U10C U11C C12A | 1.09 |
| U7G U8G G9A U11G C13U | 1.3 |
| U7G U8G G9A U11G C13G | 1.17 |
| U7G U8G G9A U11G C13A | 1.26 |
| U7G U8G G9C U10C C12U C13G | 1.36 |
| U7G U8G G9C U10C C12U C13A | 1.29 |
| U7G U8G G9C U10C C12U C13U | 1.08 |
| U7G U8G G9C U10C C13G | 1.15 |
| U7G U8G G9C U10C C13U | 1.59 |
| U7G U8G G9C U10C C13A | 1.44 |
| U7G U8G G9C U10A C12U C13A | 1.01 |
| U7G U8G G9C U10A C12U C13U | 1.04 |
| U7G U8G G9C U10A C12U C13G | 1.03 |
| U7G U8G G9C U10A U11C C12U C13G | 1.19 |
| U7G U8G G9C U10A U11C C12U C13A | 1.06 |

| Variant | aptazyme ON/OFF ratio |
| --- | --- |
| U7G U8G G9C U10A U11C C12U C13U | 1.04 |
| U7G U8G G9C U10A U11A C12U | 1.07 |
| U7G U8G G9C U10A U11A C12G | 1.07 |
| U7G U8G G9C U10A U11A C12A | 1.07 |
| U7G U8G G9C U10C U11A C13A | 1.21 |
| U7G U8G G9C U10C U11A C13U | 1.41 |
| U7G U8G G9C U10C U11A C13G | 1.17 |
| U7G U8G G9C U10A U11C C13A | 1.07 |
| U7G U8G G9C U10A U11C C13G | 1.05 |
| U7G U8G G9C U10A U11C C13U | 1.07 |
| U7G U8G G9C U10C U11G C12G C13U | 1.07 |
| U7G U8G G9C U10C U11G C12G C13G | 1.17 |
| U7G U8G G9C U10C U11G C12G C13A | 1.19 |
| U7G U8G G9C U10C U11C C12U C13G | 1.23 |
| U7G U8G G9C U10C U11C C12U C13U | 1.06 |
| U7G U8G G9C U10C U11C C12U C13A | 1.08 |
| U7G U8G G9C U10A U11G C13A | 1.08 |
| U7G U8G G9C U10A U11G C13U | 1.04 |
| U7G U8G G9C U10A U11G C13G | 1.03 |
| U7G U8G G9C U10C C12U | 1.38 |
| U7G U8G G9C U10C C12G | 1.28 |
| U7G U8G G9C U10C C12A | 1.33 |
| U7G U8G G9C U10A U11A | 1.67 |
| U7G U8G G9C U10A U11C | 1.04 |

| Variant | aptazyme ON/OFF ratio |
| --- | --- |
| U7G U8G G9C U10A U11G | 1.11 |
| U7G U8G G9A U11G C12G C13G | 1.12 |
| U7G U8G G9A U11G C12G C13A | 1.12 |
| U7G U8G G9A U11G C12G C13U | 1.23 |
| U7G U8G G9C U10C U11A C12A | 1.3 |
| U7G U8G G9C U10C U11A C12U | 1.3 |
| U7G U8G G9C U10C U11A C12G | 1.32 |
| U7G U8G G9C U10A C13U | 1.03 |
| U7G U8G G9C U10A C13A | 1.05 |
| U7G U8G G9C U10A C13G | 1.01 |
| U7G U8G G9A U11C C12U C13G | 1.44 |
| U7G U8G G9A U11C C12U C13U | 1.02 |
| U7G U8G G9C U10C C12G C13G | 1.09 |
| U7G U8G G9C U10C C12G C13A | 1.22 |
| U7G U8G G9C U10C C12G C13U | 1.27 |
| U7G U8G G9C U10A U11C C12G | 1.11 |
| U7G U8G G9C U10A U11C C12A | 1.06 |
| U7G U8G G9C U10A U11C C12U | 1.08 |
| U7G U8G G9A U11C C13U | 1.28 |
| U7G U8G G9A U11C C13G | 1.12 |
| U7G U8G G9A U11C C13A | 1.25 |
| U7G U8G G9C U10C U11A C12A C13G | 1.23 |
| U7G U8G G9C U10C U11A C12A C13U | 1.12 |
| U7G U8G G9C U10C U11A C12A C13A | 1.33 |

| Variant | aptazyme ON/OFF ratio |
| --- | --- |
| U7G U8G G9C U10A C12G C13G | 1.04 |
| U7G U8G G9C U10A C12G C13A | 1.05 |
| U7G U8G G9C U10A C12G C13U | 1.04 |
| U7G U8G G9C U10A U11C C12A C13G | 1.06 |
| U7G U8G G9C U10A U11C C12A C13U | 1.04 |
| U7G U8G G9C U10A U11C C12A C13A | 1.07 |
| U7G U8G G9C U10C U11C C13U | 1.07 |
| U7G U8G G9C U10C U11C C13G | 1.04 |
| U7G U8G G9C U10C U11C C13A | 1.09 |
| U7G U8G G9C U10C U11C | 1.22 |
| U7G U8G G9C U10C U11G | 1.35 |
| U7G U8G G9C U10C U11A | 1.64 |
| U7G U8G G9C U10A U11A C12A C13A | 1.05 |
| U7G U8G G9C U10A U11A C12A C13G | 1.04 |
| U7G U8G G9C U10A U11A C12A C13U | 1.04 |
| U7G U8G G9C U10A U11G C12U C13G | 1.04 |
| U7G U8G G9C U10A U11G C12U C13A | 1.07 |
| U7G U8G G9C U10A U11G C12U C13U | 1.05 |
| U7G U8G G9C U10G C12A | 1.14 |
| U7G U8G G9C U10A U11C C12G C13G | 1.05 |
| U7G U8G G9C U10A U11C C12G C13A | 1.06 |
| U7G U8G G9C U10A U11C C12G C13U | 1.06 |
| U7G U8G G9C C12U C13A | 1.11 |
| U7G U8G G9C C12U C13G | 1.22 |

| Variant | aptazyme ON/OFF ratio |
| --- | --- |
| U7G U8G G9C C12U C13U | 1.12 |
| U7G U8G G9C C12A | 1.22 |
| U7G U8G G9C C12U | 1.94 |
| U7G U8G G9C C12G | 1.47 |
| U7G U8G G9C U10A U11A C13U | 1.07 |
| U7G U8G G9C U10A U11A C13G | 1.02 |
| U7G U8G G9C U10A U11A C13A | 1.06 |
| U7G U8G G9C U10A U11G C12A | 1.05 |
| U7G U8G G9C U10A U11G C12U | 1.12 |
| U7G U8G G9C U10A U11G C12G | 1.08 |
| U7G U8G G9C | 4.59 |
| U7G U8G G9C C13A | 1.42 |
| U7G U8G G9C C13G | 1.16 |
| U7G U8G G9C C13U | 1.47 |
| U7G U8G G9C U10C C12A C13U | 1.25 |
| U7G U8G G9C U10C C12A C13G | 1.27 |
| U7G U8G G9C U10C C12A C13A | 1.29 |
| U7G U8G G9C U10C U11G C12A C13G | 1.31 |
| U7G U8G G9C U10C U11G C12A C13A | 1.17 |
| U7G U8G G9C U10C U11G C12A C13U | 1.3 |
| U7G U8G G9C U10C U11G C12A | 1.22 |
| U7G U8G G9C U10C U11G C12G | 1.23 |
| U7G U8G G9C U10C U11G C12U | 1.37 |
